Measurements reported in US20230242673A1 (published 2023).

Key:
[1] = biological target: T1, original PCSK9 (PCSK9 (human) recombinant protein, Abnova Cat No: H00255738-P01) (UniProt Q8NBP7 31-692); experiment: ELISA; mean of two experiments, ±0.028
[2] = biological target: T1, original PCSK9 (PCSK9 (human) …); experiment: ELISA; 2nd experiment
[3] = biological target: T1, original PCSK9 (PCSK9 (human) …); experiment: ELISA; 1st experiment
[4] = biological target: T1, original PCSK9 (PCSK9 (human) …); experiment: ELISA; mean of two experiments, ±0.000
[5] = biological target: T1, original PCSK9 (PCSK9 (human) …); experiment: ELISA; mean of two experiments, ±0.014

T1 sequence (Q8NBP7 other isoform, or with tags, fused parts or gaps): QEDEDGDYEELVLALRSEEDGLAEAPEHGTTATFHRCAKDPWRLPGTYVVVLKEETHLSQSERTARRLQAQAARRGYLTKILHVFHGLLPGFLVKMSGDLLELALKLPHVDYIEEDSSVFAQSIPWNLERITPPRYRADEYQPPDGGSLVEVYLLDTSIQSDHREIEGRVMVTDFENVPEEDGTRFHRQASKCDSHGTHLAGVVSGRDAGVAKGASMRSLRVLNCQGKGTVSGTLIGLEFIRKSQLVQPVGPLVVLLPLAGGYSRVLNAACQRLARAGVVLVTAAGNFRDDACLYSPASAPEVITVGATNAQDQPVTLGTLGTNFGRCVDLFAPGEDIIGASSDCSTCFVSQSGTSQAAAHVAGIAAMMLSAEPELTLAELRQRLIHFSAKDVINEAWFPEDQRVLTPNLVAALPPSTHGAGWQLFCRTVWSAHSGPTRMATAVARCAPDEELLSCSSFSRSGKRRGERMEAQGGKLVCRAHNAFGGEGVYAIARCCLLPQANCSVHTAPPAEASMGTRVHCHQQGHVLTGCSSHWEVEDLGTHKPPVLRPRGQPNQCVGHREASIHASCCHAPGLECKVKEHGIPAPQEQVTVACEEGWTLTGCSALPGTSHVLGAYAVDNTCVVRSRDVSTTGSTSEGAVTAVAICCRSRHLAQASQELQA

EC50 [1] [µg/mL]	EC50 [2] [µg/mL]	EC50 [3] [µg/mL]	EC50 [4] [µg/mL]	EC50 [5] [µg/mL]	Binder
0.38	0.4	0.36	–	–	ch7D1 IgG (antibody, V domains shown) VH: EVKLVESGAELVRSGASVKLSCTASGFNIKDYYMHWVKQRPEQGLEWIGYIDPENGDTEYAPKFQGKATMTADTSSNTAYLQLSSLTSEDTAVYYCRSSPFTYWGQGTLVTVSA VL: not shown
–	0.13	0.13	0.13	–	hz7D1.11 IgG (antibody, V domains shown) VH: QVQLVQSGAEVKKPGASVKVSCKASGFNIKDYYMHWVRQAPGQGLEWIGYIDPENGDTEYAPKFQGRATMTADTSISTAYMELSRLRSDDTAVYYCRSSPFTYWGQGTLVTVSS VL: DVVMTQSPLSLPVTLGQPASISCKSSQSLLDSDGKTYLNWLQQRPGQSPRRLIYLVSKLDSGVPDRFSGSGSGTDFTLKISRVEAEDVGVYYCWQGTHFPQTFGGGTKVEIKR
–	0.17	0.19	–	0.18	hz7D1.22 IgG (antibody, V domains shown) VH: QVQLVQSGAEVKKPGASVKVSCKASGYTFKDYYMHWVRQAPGQGLEWMGYIDPENGDTEYAPKFQGRVTMTADTSISTAYMELSRLRSDDTAVYYCRSSPFTYWGQGTLVTVSS VL: DVVMTQSPLSLPVTLGQPASISCKSSQSLLDSDGKTYLNWFQQRPGQSPRRLIYLVSKLDSGVPDRFSGSGSGTDFTLKISRVEAEDVGVYYCWQGTHFPQTFGGGTKVEIKR
